B1: recombinant FHR-5 G278S (natural protein, human, UniProt Q9BXR6 19-569, looked up)
chain: EGTLCDFPKIHHGFLYDEEDYNPFSQVPTGEVFYYSCEYNFVSPSKSFWTRITCTEEGWSPTPKCLRMCSFPFVKNGHSESSGLIHLEGDTVQIICNTGYSLQNNEKNISCVERGWSTPPICSFTKGECHVPILEANVDAQPKKESYKVGDVLKFSCRKNLIRVGSDSVQCYQFGWSPNFPTCKGQVRSCGPPPQLSNGEVKEIRKEEYGHNEVVEYDCNPNFIINGPKKIQCVDGEWTTLPTCVEQVKTCGYIPELEYSYVQPSVPPYQHGVSVEVNCRNEYAMIGNNMITCINGIWTELPMCVATHQLKRCKIAGVNIKTLLKLSGKEFNHNSRIRYRCSDIFRYRHSVCINGKWNPEVDCTEKREQFCPPPPQIPNAQNMTTTVNYQDGEKVAVLCKENYLLPEAKEIVCKDGRWQSLPRCVESTAYCGPPPSINNGDTTSFPLSVYPPGSTVTYRCQSFYKLQGSVTVTCRNKQWSEPPRCLDPCVVSEENMNKNNIQLKWRNDGKLYAKTGDAVEFQCKFPHKAMISSPPFRAICQEGKFEYPICE
notes: complement Factor H-related protein 5 (FHR-5), human; amplified from the wtCFHR5 vector with a mutagenic primer; numbered from the ATG translation initiation site; Same construct as m1 with the patient variation G278S
B2: recombinant FHR-5 R356H (natural protein, human, UniProt Q9BXR6 19-569, looked up)
chain: EGTLCDFPKIHHGFLYDEEDYNPFSQVPTGEVFYYSCEYNFVSPSKSFWTRITCTEEGWSPTPKCLRMCSFPFVKNGHSESSGLIHLEGDTVQIICNTGYSLQNNEKNISCVERGWSTPPICSFTKGECHVPILEANVDAQPKKESYKVGDVLKFSCRKNLIRVGSDSVQCYQFGWSPNFPTCKGQVRSCGPPPQLSNGEVKEIRKEEYGHNEVVEYDCNPNFIINGPKKIQCVDGEWTTLPTCVEQVKTCGYIPELEYGYVQPSVPPYQHGVSVEVNCRNEYAMIGNNMITCINGIWTELPMCVATHQLKRCKIAGVNIKTLLKLSGKEFNHNSRIHYRCSDIFRYRHSVCINGKWNPEVDCTEKREQFCPPPPQIPNAQNMTTTVNYQDGEKVAVLCKENYLLPEAKEIVCKDGRWQSLPRCVESTAYCGPPPSINNGDTTSFPLSVYPPGSTVTYRCQSFYKLQGSVTVTCRNKQWSEPPRCLDPCVVSEENMNKNNIQLKWRNDGKLYAKTGDAVEFQCKFPHKAMISSPPFRAICQEGKFEYPICE
notes: complement Factor H-related protein 5 (FHR-5), human; amplified from the wtCFHR5 vector with a mutagenic primer; histidine instead of arginine at position 356, a variation found in patients; numbered from the ATG translation initiation site; Same construct as m1 with the patient variation R356H
B3: recombinant wild-type Factor H-related protein 5 (FHR-5WT) (natural protein, human, UniProt Q9BXR6 19-569, looked up)
chain: EGTLCDFPKIHHGFLYDEEDYNPFSQVPTGEVFYYSCEYNFVSPSKSFWTRITCTEEGWSPTPKCLRMCSFPFVKNGHSESSGLIHLEGDTVQIICNTGYSLQNNEKNISCVERGWSTPPICSFTKGECHVPILEANVDAQPKKESYKVGDVLKFSCRKNLIRVGSDSVQCYQFGWSPNFPTCKGQVRSCGPPPQLSNGEVKEIRKEEYGHNEVVEYDCNPNFIINGPKKIQCVDGEWTTLPTCVEQVKTCGYIPELEYGYVQPSVPPYQHGVSVEVNCRNEYAMIGNNMITCINGIWTELPMCVATHQLKRCKIAGVNIKTLLKLSGKEFNHNSRIRYRCSDIFRYRHSVCINGKWNPEVDCTEKREQFCPPPPQIPNAQNMTTTVNYQDGEKVAVLCKENYLLPEAKEIVCKDGRWQSLPRCVESTAYCGPPPSINNGDTTSFPLSVYPPGSTVTYRCQSFYKLQGSVTVTCRNKQWSEPPRCLDPCVVSEENMNKNNIQLKWRNDGKLYAKTGDAVEFQCKFPHKAMISSPPFRAICQEGKFEYPICE
notes: complement Factor H-related protein 5 (FHR-5), human; variations are numbered from the ATG translation initiation site; Secreted into the Sf9 supernatant; also called wild-type FHR-5; wtCFHR5

target: T1, purified C3b (UniProt P01024 23-667; P01024 749-1663); test: SPR; ProteOn XPR36; recombinant FHR-5 variants amine-coupled on a GLC chip at 4,200-4,600 RU; C3b in serial dilutions as analyte in DPBS with 0.005% Tween-20, 50 µl/min; ovalbumin channel subtracted; bivalent analyte model, KD = kd/ka; conditions: both partners purified
T1 construct: complement C3 beta chain, as in C3b; complement C3b alpha' chain (C3 alpha chain without C3a); also called C3b fragment; source: bought: Merck
T1 sequence (P01024 23-667, chain 1 of 2): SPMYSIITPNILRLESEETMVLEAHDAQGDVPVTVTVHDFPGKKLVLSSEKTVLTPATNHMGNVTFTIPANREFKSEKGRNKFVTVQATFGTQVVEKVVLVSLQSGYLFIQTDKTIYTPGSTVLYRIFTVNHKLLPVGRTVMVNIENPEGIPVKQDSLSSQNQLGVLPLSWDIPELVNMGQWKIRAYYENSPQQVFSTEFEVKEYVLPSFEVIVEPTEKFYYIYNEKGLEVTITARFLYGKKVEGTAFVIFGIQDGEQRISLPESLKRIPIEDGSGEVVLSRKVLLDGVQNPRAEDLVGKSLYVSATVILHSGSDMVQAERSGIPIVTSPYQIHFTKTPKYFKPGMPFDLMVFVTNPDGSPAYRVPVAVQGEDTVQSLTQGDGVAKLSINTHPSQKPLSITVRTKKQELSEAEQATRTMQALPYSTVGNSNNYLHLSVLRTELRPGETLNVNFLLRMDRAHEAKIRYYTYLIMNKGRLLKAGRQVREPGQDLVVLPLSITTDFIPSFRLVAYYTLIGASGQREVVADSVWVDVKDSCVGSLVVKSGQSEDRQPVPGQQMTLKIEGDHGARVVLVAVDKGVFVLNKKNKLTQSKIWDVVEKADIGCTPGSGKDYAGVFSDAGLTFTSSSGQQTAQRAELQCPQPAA
T1 sequence (P01024 749-1663, chain 2 of 2): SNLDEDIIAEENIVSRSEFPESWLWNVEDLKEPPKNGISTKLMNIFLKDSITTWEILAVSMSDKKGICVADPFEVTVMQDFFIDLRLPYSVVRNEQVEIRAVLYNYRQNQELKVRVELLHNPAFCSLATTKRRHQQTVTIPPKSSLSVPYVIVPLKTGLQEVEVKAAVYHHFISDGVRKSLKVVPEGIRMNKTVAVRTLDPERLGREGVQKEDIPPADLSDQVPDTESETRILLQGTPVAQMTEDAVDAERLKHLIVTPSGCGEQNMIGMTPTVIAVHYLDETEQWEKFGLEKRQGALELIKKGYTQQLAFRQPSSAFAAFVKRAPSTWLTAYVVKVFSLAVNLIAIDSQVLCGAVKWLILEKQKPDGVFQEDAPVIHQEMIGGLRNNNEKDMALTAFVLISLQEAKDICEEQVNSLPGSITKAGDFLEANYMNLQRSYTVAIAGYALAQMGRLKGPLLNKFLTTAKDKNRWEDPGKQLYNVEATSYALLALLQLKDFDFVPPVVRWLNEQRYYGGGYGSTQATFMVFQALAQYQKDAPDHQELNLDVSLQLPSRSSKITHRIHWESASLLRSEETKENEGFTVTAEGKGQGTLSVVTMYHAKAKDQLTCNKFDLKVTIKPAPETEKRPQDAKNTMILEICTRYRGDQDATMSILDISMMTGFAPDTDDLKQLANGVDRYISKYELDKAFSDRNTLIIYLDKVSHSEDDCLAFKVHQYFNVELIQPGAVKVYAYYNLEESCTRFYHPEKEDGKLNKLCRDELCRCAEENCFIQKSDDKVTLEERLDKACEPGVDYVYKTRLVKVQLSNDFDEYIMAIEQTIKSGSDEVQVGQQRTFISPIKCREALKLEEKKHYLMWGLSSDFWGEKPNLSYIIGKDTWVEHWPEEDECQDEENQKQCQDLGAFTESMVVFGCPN

B1 was tested. Which Kd did it give?
Its Kd is 20.5 µM.

Which Kd does the source give for B2 here?
The Kd was 5.6 µM.

For B3, which Kd is on record?
Its Kd is 5.26 µM.
